Measured values published in patent US11781164B2, “Demethylation of reticuline and derivatives thereof with fungal cytochrome P450” (priority 2017, dated 2023).

Experiments:
codeine = assay: In vitro N-demethylation of codeine by mammalian cytochrome P450s in crude yeast cell lysates; conditions: crude cell extract with human CPR and cytochrome b5; 0.2 mM substrate, pH 7, 30° C., approximately 20 hours; compared to negative control strain without cytochrome P450s
thebaine = assay: In vitro N-demethylation of thebaine by mammalian cytochrome P450s in crude yeast cell lysates; conditions: crude cell extract with human CPR and cytochrome b5; 0.2 mM substrate, pH 7, 30° C., approximately 20 hours; compared to negative control strain without P450s
oripavine = assay: In vitro N-demethylation of oripavine by mammalian cytochrome P450s in crude yeast cell lysates; conditions: crude cell extract with human CPR and cytochrome b5; 0.2 mM substrate, pH 7, 30° C., approximately 20 hours; compared to negative control strain without cytochrome P450s
salutaridine = assay: In vitro N-demethylation of salutaridine by mammalian cytochrome P450s in crude yeast cell lysates; conditions: crude cell extract with human CPR and cytochrome b5; 0.2 mM substrate, pH 7, 30° C., approximately 20 hours; compared to negative control strain without cytochrome P450s
salutaridinol = assay: In vitro N-demethylation of salutaridinol by mammalian cytochrome P450s in crude yeast cell lysates; conditions: crude cell extract with human CPR and cytochrome b5; 0.2 mM substrate, pH 7, 30° C., approximately 20 hours; compared to negative control strain without cytochrome P450s

B1: Hs_CYP2C8: Cytochrome P450 2C8 (P10632), Homo sapiens (protein, UniProt P10632 1-490, looked up)
Cytochrome P450 2C8: MEPFVVLVLCLSFMLLFSLWRQSCRRRKLPPGPTPLPIIGNMLQIDVKDICKSFTNFSKVYGPVFTVYFGMNPIVVFHGYEAVKEALIDNGEEFSGRGNSPISQRITKGLGIISSNGKRWKEIRRFSLTTLRNFGMGKRSIEDRVQEEAHCLVEELRKTKASPCDPTFILGCAPCNVICSVVFQKRFDYKDQNFLTLMKRFNENFRILNSPWIQVCNNFPLLIDCFPGTHNKVLKNVALTRSYIREKVKEHQASLDVNNPRDFIDCFLIKMEQEKDNQKSEFNIENLVGTVADLFVAGTETTSTTLRYGLLLLLKHPEVTAKVQEEIDHVIGRHRSPCMQDRSHMPYTDAVVHEIQRYSDLVPTGVPHAVTTDTKFRNYLIPKGTTIMALLTSVLHDDKEFPNPNIFDPGHFLDKNGNFKKSDYFMPFSAGKRICAGEGLARMELFLFLTTILQNFNLKSVDDLKNLNTTAVTKGIVSLPPSYQICFIPV
detected: in vitro N-demethylation activity on codeine (codeine) | in vitro N-demethylation activity on Thebaine (thebaine) | in vitro N-demethylation activity on oripavine (oripavine) | in vitro N-demethylation activity on salutaridine (salutaridine) | in vitro N-demethylation activity on salutaridinol (salutaridinol)
